In patent US20150132331A1 one finds fold better recognition than commercial full-length HA data, which are given here for 1 substance.

This experiment has as its target HA stem domain construct mutant M6 (A/California/05/2009 (H1N1) HA stem fused to foldon, refolded trimer) (Influenza A virus A/California/05/2009 (H1N1)).

Take “antibody C179 (Mouse IgG) (TAKAR Bio INC.)”: the fold better recognition than commercial full-length HA came to 30 fold.
